± gives the standard error. This sample holds only a part of the variants without activity.
B1: glmS ribozyme (parent)
chain: AUAAAAGCGCCAGAACUACAGAAAUGUAGUUGACGAGGAGGAGGUUUAUCGAAUUUUCGGCGGAUGCCUCCAAA

How the values were obtained:
Details in all cases: with glucosamine-6-phosphate
glucosamine-6-phosphate [1] = variants of: B1; test: self-cleavage kobs at 40 uM GlcN6P; higher = faster cleavage; RNA array
In short: (§1)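 Tracking of barcoded ribozyme variants used a hybridised Cy3 probe at 37 °C, after in situ transcription by E. coli RNA polymerase on sequenced MiSeq chips. The flowed solution held 40 μM to 10 mM glucosamine-6-phosphate in HEPES/KCl/Mg(OAc)2 buffer, and imaging ran over ~14 h. kobs was taken from exponential decay fits of normalised per-tile medians, and kcat and KM from weighted Michaelis–Menten fits.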

glucosamine-6-phosphate [2] = variants of: B1; test: self-cleavage kobs at 160 uM GlcN6P; higher = faster cleavage; RNA array
In short: as §1

glucosamine-6-phosphate [3] = variants of: B1; test: self-cleavage kobs at 640 uM GlcN6P; higher = faster cleavage; RNA array
In short: as §1

glucosamine-6-phosphate [4] = variants of: B1; test: self-cleavage kobs at 2500 uM GlcN6P; higher = faster cleavage; RNA array
In short: as §1

glucosamine-6-phosphate [5] = variants of: B1; test: self-cleavage kobs at 10000 uM GlcN6P; higher = faster cleavage; RNA array
In short: as §1

Row | Variant | self-cleavage kobs at 40 uM GlcN6P (glucosamine-6-phosphate [1]) | self-cleavage kobs at 160 uM GlcN6P (glucosamine-6-phosphate [2]) | self-cleavage kobs at 640 uM GlcN6P (glucosamine-6-phosphate [3]) | self-cleavage kobs at 2500 uM GlcN6P (glucosamine-6-phosphate [4]) | self-cleavage kobs at 10000 uM GlcN6P (glucosamine-6-phosphate [5])
1 | AUAAACGCGCCAGAACUACAGAAAUGUAGUUGACGAGGAGCAAGUUUGUCGAAUUUUCGGCGGAUGCCUCCAAA [A6C G41C G43A A48G] | < 1e-05 s⁻¹ | – | – | – | –
2 | AUAAAAGCGCCAGAACUACAGAAAUGUAGUUGACGAGGAGGAGGUUUAUCGAUUUCUCGGCGGAUGCCUCCAAA [A53U U56C] | 5.21e-05 ± 8e-06 s⁻¹ | 0.000101 ± 1.5e-05 s⁻¹ | 0.000782 ± 9.1e-05 s⁻¹ | 0.00118 ± 0.00021 s⁻¹ | 0.0038 ± 0.00042 s⁻¹
3 | AUAAAAUCGGCAGAACUACAGAAAUGUAGUUGACGAGGAGGAGGUUUAUCGAAUUUUCGGCGGAUGCGUCCAAA [G7U C10G C68G] | 0.000171 ± 5.8e-05 s⁻¹ | – | – | – | 5.21e-05 ± 1.6e-05 s⁻¹
4 | AUAAAGGCGCCAGAAUUACAGAAAUGUAGUUCACGAGGAGUAGGUUUAUCGAAUUUUCGGCGGAUGCUUCCAAA [A6G C16U G32C G41U C68U] | < 1e-05 s⁻¹ | – | < 1e-05 s⁻¹ | < 1e-05 s⁻¹ | < 1e-05 s⁻¹
5 | AUAAAAGCGCCAGAACUACAGAAAUGUAGUUGACGAGGAGGAGGUUUCUCGAAUUUUCGGCGGAUGCCUACAAA [A48C C70A] | < 1e-05 s⁻¹ | – | < 1e-05 s⁻¹ | – | –
6 | AUAAACGCGCCAGAACUACAGAAAUGUAGUUGACGAGGAGGAGGUUUAUCGAAUUUUCGGCGGUUGCCUCCAAA [A6C A64U] | < 1e-05 s⁻¹ | < 1e-05 s⁻¹ | < 1e-05 s⁻¹ | – | < 1e-05 s⁻¹
7 | AUAAAAGCGCCAGAACUACAGAAAUGUAGUUGACGAGGAGGUGGUUUAUCGAAUUUUCGGCGUAUGCCUCCAAA [A42U G63U] | < 1e-05 s⁻¹ | < 1e-05 s⁻¹ | – | < 1e-05 s⁻¹ | < 1e-05 s⁻¹
8 | AUAAAAUCGCCAGAACUACAGAAAUGUAGUAUACGAGGAGUAGGUUUUUCGAAUUUUCGGCGGAUGCCUCCAAA [G7U U31A G32U G41U A48U] | < 1e-05 s⁻¹ | – | – | – | < 1e-05 s⁻¹
9 | AUAAAAGCGCCAGAACUACAGAAAUGUAGAUGACGAGGAGGAGGUUUAUCGAAUUUUCGGCGGAUGCAUCCAAA [U30A C68A] | < 1e-05 s⁻¹ | – | – | – | –
10 | AUAAAAGCGCCAGAACUACAGAAAUGUAGUUGACGAGGAGGAGGUUUAUCGAAUUUUGGGCGGCUGCCUCCAAA [C58G A64C] | < 1e-05 s⁻¹ | < 1e-05 s⁻¹ | – | – | –
11 | AUAAAAGUGCCAGAACUACAGAAAUGUAGUUGACGAGGAGGAGGUUUAUCGAAUUUUCUGCGGAUGCCUCCAAA [C8U G59U] | < 1e-05 s⁻¹ | < 1e-05 s⁻¹ | < 1e-05 s⁻¹ | < 1e-05 s⁻¹ | < 1e-05 s⁻¹
12 | AUAAAAGCGCCAGAACUACAGAAAUGUAGUUGAUGAGGAGGAGGUUUAUCGAAUUUUCUGCGGAUGCCUCCAAA [C34U G59U] | < 1e-05 s⁻¹ | < 1e-05 s⁻¹ | < 1e-05 s⁻¹ | < 1e-05 s⁻¹ | < 1e-05 s⁻¹
13 | AUAAAAGCGCCGGAACUACAGAAAUGUAGUUGACGAGGAGGAGGUUUAUCGAAUUUUCGGAGGAUGCCUUCAAA [A12G C61A C70U] | < 1e-05 s⁻¹ | – | – | – | < 1e-05 s⁻¹
14 | AUAAAAGCGCCAGAACUACAGAAAUGUAGUUGACGAGGAGGGUGUUUAUCGAAUUUUCGGCGGAUGCCUUCAAA [A42G G43U C70U] | < 1e-05 s⁻¹ | – | – | – | < 1e-05 s⁻¹
15 | AUAAAAGAGCCAGAACUACAGAAAUGUAUUUGACGAGGAGGAGGUUUAUCGAAUUUUCGUCGGAUGCCUCCAAA [C8A G29U G60U] | < 1e-05 s⁻¹ | – | – | – | < 1e-05 s⁻¹
16 | AUAAAAGCGCCAGGACUACAGAAAUGUAGUUGACGAGGAGGAGGUUUAUCGAGUUUUUGGCGGACGCCUCUAAA [A14G A53G C58U U65C C71U] | < 1e-05 s⁻¹ | – | – | – | –
17 | AUAAAAGCGCCAGUCCUACAGAAAUGUAGUUGCCGAGGAGGAGGUUUAUCGAAUUUUCGGCGGAUGCCUGCAAA [A14U A15C A33C C70G] | < 1e-05 s⁻¹ | – | – | – | –
18 | AUAAAGGCGCCAGAUUUACAGAAAUGUAGUUGACGAGGGGGAGGUUUAUCGAAUUUUCGGCGGAUGCCUUCAAA [A6G A15U C16U A39G C70U] | < 1e-05 s⁻¹ | – | < 1e-05 s⁻¹ | – | –
19 | AUAAAAGGGCCAGAACUACAGAAAUGUAGUUGAUGAGGAGGAGGUUUAUCGAAUGUUCGGCGGAUGCCUCCAAA [C8G C34U U55G] | < 1e-05 s⁻¹ | – | – | – | < 1e-05 s⁻¹
20 | AUAAAAGCGACAGAACUACAGAAAUGUAGUUGACGAGGAAGAGGUUUAUCGAAUUUUCGGCGGAUGCCUCCAAA [C10A G40A] | < 1e-05 s⁻¹ | < 1e-05 s⁻¹ | < 1e-05 s⁻¹ | < 1e-05 s⁻¹ | < 1e-05 s⁻¹
21 | AUAAAAGCGCCAGAACUACAGAAAUGUAGUUGACGAGGAAGAGGUUUAUCGAAUUUUCGGCGGAUGCCUCGAAA [G40A C71G] | 0.000326 ± 5.2e-05 s⁻¹ | 0.00034 ± 0.00014 s⁻¹ | 0.00161 ± 0.00038 s⁻¹ | 0.00373 ± 0.0013 s⁻¹ | 0.00695 ± 0.0013 s⁻¹
22 | AUAAAAGCGCCAGAACUACAAAAAUGUAGUUGACGAGGAGGAGGUUUAUCGAAUUUUCGGCGGAUGCCUCCAAA [G21A] | 0.00134 ± 0.00021 s⁻¹ | 0.00268 ± 0.00063 s⁻¹ | 0.00836 ± 0.0012 s⁻¹ | 0.00839 ± 0.0024 s⁻¹ | 0.0758 ± 0.037 s⁻¹
23 | AUAAAACCGCCAUAACUACAGAAAUGUAGUUGGCGAGGAGGAGGGUUAUCGAAUUUUCGGCGGAUGCCUCCAAA [G7C G13U A33G U45G] | < 1e-05 s⁻¹ | – | – | – | –
24 | AUAAAGGCGCCAGAACUACAGAAAUGUAGUUGACGAGUGGGAGGUUUAUCAAAUUUUCGGCGGAUGCGUUCAAA [A6G G38U A39G G51A C68G C70U] | 7.83e-05 ± 3.2e-05 s⁻¹ | – | – | – | –
25 | AUAAAAGCGCCAAUACUACAGAAAUGUAGUCGACGAGGAGGAGGUUUAUCGAAUUUUCGGCGGAUGCCUCCAAA [G13A A14U U31C] | 7.34e-05 ± 1.8e-05 s⁻¹ | – | – | – | –
26 | AUAAAAGCGCCAGAACUACAGAAAUGUAGUUGACGAGGAGGAGGUAUAUCGAAUUUUUGGCGGAUGCCUCCAAA [U46A C58U] | < 1e-05 s⁻¹ | < 1e-05 s⁻¹ | < 1e-05 s⁻¹ | – | –
27 | AUAAAAGCGCCAGAAUUACAGAAAUGUAGUAGACGAGGAGGAGGUUUAUCGAAUUUUCGGCGGAUGCCUCCAAA [C16U U31A] | 0.000621 ± 7.9e-05 s⁻¹ | 0.000862 ± 0.00014 s⁻¹ | 0.00468 ± 0.00061 s⁻¹ | 0.00634 ± 0.0017 s⁻¹ | 0.0168 ± 0.0026 s⁻¹
